The text below walks through data of patent US9393284B2, “Visfatin therapeutic agents for the treatment of acne and other conditions” (ARAVA BIO-TECH LTD., priority 2009, dated 2016).

The subject of experiment [1] is sebaceous glands. The experiment in a line: Number of sebocytes in sebaceous glands of adult BalbC mice after topical or intradermal visfatin (H&E staining). Type of experiment: in vivo, Mus musculus. The following applies: 0.01 μg/ml, 200 μL once daily for 4 days. As to the method: Preparation of Paraffin Embedded Skin Sections: Skin biopsies were performed on study mice. Skin biopsy samples were fixed in 4% paraformaldehyde then dehydrated with increasing concentrations of ethanol (50-100%). Dehydrated biopsy samples were immersed twice in xylene, then once in a 1:1 solution of paraffin and xylene and finally three times in pure melted paraffin at a temperature of 60° C. Paraffin blocks were then sectioned with a microtome and the resulting sections were mounted on slides.
Hematoxylin & Eosin Staining: Paraffin embedded skin biopsy section slides were incubated at 60° C. for 60 minutes and deparaffinized by washing the slides twice with toluene (100%) for 10 minutes and rehydrating the skin biopsy section slides in decreasing concentration of ethanol (100-50%) for 5 minutes each. The slides then were stained with a ready to use solution of hematoxylin for 5 minutes, rinsed with water, stained with eosin (0.5% in double distilled water) for 1.5 minutes and washed twice by rapid immersion in 70% ethanol. […]
Skin samples were fixed in 4% paraformaldehyde and paraffin embedded. The number of cells with the bubbled shaped morphology characteristic of sebocytes were then counted and calculated as a percentage of the number of total cells in each sebaceous gland by microscopic examination at a magnification of 40× using a Nikon Eclipse 50i microscope. […]

Experiment [2] concerns sebaceous glands. The experiment in a line: Maturation and sebum accumulation of sebaceous glands in newborn BalbC mice treated with visfatin (Oil Red O, H&E). It counts as in vivo, Mus musculus. The protocol:
Preparation of Frozen Skin Sections: Skin biopsies were embedded in optimum cutting temperature compound (OCT) and immediately sectioned by cryostat-microtome and mounted on slides.
Hematoxylin & Eosin Staining: Paraffin embedded skin biopsy section slides were incubated at 60° C. for 60 minutes and deparaffinized by washing the slides twice with toluene (100%) for 10 minutes and rehydrating the skin biopsy section slides in decreasing concentration of ethanol (100-50%) for 5 minutes each. The slides then were stained with a ready to use solution of hematoxylin for 5 minutes, rinsed with water, stained with eosin (0.5% in double distilled water) for 1.5 minutes and washed twice by rapid immersion in 70% ethanol. Thereafter, the slides were dehydrated by washing once with 95% ethanol for 5 minutes, twice with 100% ethanol for 5 minutes and twice with xylene (100%) for 10 minutes. This was followed by the application of ENTELLAN™ (Merck KGaA, Darmstadt, Germany) and the mounting of coverslips.
Oil Red O Staining: Frozen skin biopsy section slides were fixed in 1% neutral-buffered formalin for 5 minutes, washed in deionized water, and incubated in 60% isopropanol for 5 minutes. […]

B1: visfatin: recombinant Mus musculus visfatin (Enzo Life Sciences), in PBS, topical or intradermal solution (protein, UniProt Q99KQ4 1-491, looked up)
Nicotinamide …: MNAAAEAEFNILLATDSYKVTHYKQYPPNTSKVYSYFECREKKTENSKVRKVKYEETVFYGLQYILNKYLKGKVVTKEKIQEAKEVYREHFQDDVFNERGWNYILEKYDGHLPIEVKAVPEGSVIPRGNVLFTVENTDPECYWLTNWIETILVQSWYPITVATNSREQKKILAKYLLETSGNLDGLEYKLHDFGYRGVSSQETAGIGASAHLVNFKGTDTVAGIALIKKYYGTKDPVPGYSVPAAEHSTITAWGKDHEKDAFEHIVTQFSSVPVSVVSDSYDIYNACEKIWGEDLRHLIVSRSTEAPLIIRPDSGNPLDTVLKVLDILGKKFPVTENSKGYKLLPPYLRVIQGDGVDINTLQEIVEGMKQKKWSIENVSFGSGGALLQKLTRDLLNCSFKCSYVVTNGLGVNVFKDPVADPNKRSKKGRLSLHRTPAGNFVTLEEGKGDLEEYGHDLLHTVFKNGKVTKSYSFDEVRKNAQLNIEQDVAPH
B1: the “number of sebocytes present inside the sebaceous glands relative to control mice” value in experiment [1] (intradermal) and in experiment [1] (topical) was “increased” each time. Moreover, in experiment [2] (topical visfatin 0.01 μg/ml 100 μL once daily, day 3 after birth), the “sebum in sebaceous glands based on Oil Red O staining” value is given as “do contain sebum”. In addition, in experiment [2] (topical visfatin, day 4 after birth), the “maturation of sebaceous glands (H&E staining)” value is “induces the maturation of sebaceous glands”.
